Measured values taken from publication PMC4113602.
pKd: −log10 of the molar value. Like-named read-outs stand apart in the source and are kept apart here.

Experiments:
[1] = target: W2A E-cadherin/ATH monomer (E-cadherin extracellular domains EC1-EC5, W2A, N20C); test: FRET or BRET
[2] = target: W2A E-cadherin/ATH monomer (E-cadherin extracellular domains EC1-EC5, W2A, N20C); test: single molecule AFM force measurement
[3] = target: W2A E-cadherin/ATH monomer (E-cadherin extracellular domains EC1-EC5, W2A, N20C); test: cross-linking
[4] = target: E-cadherin ECD (Mus musculus) (UniProt P09803); settings: cited from earlier work
[5] = target: E-cadherin ECD (Mus musculus) (UniProt P09803); settings: cited from earlier work; remark: listed apart in the source

Substance	FRET efficiency (peak) [1]	bond strength (unbinding force) [2]	cross-linked dimer yield [3]	pKd [4]	pKd [5]
W2A E-cadherin/ATH monomer (E-cadherin extracellular domains EC1-EC5, W2A, N20C) (domain or fragment)	0.74	17 pN	20%		
E-cadherin ECD (from UniProt P09803)				2.00	3.14
